Measured values taken from patent publication US20120094271A1, “SELECTING FOR COOPERATIVELY INTERACTING MOLECULES” (Arizona Board of Regents for and on behalf of Arizona State …, priority 2008, published 2012).

Tests used:
[1] = target: Beta-galactosidase (β-gal) (Escherichia coli, UniProt P00722); settings: ~12 uM peptide, ~3 nM β-gal
Experimental: (§1) Beta-galactosidase (β-gal) (˜3 nM, Alexa647 labeled, the target) was preincubated with a solution containing ˜12 uM of the peptide “[…]” (the ligand). […] The complex between β-gal and the peptide complex was incubated with a […] 10,000 random sequence peptides (the “test molecules”) bound to the surface of a glass slide in an ordered fashion. The incubation took place for two hours and the binding pattern of this was compared to the binding pattern using only the labeled enzyme and no ligand.

[2] = target: β-gal enzyme (Escherichia coli, UniProt P00722); settings: ~12 uM peptide
Chain of β-gal enzyme (P00722 2-1024): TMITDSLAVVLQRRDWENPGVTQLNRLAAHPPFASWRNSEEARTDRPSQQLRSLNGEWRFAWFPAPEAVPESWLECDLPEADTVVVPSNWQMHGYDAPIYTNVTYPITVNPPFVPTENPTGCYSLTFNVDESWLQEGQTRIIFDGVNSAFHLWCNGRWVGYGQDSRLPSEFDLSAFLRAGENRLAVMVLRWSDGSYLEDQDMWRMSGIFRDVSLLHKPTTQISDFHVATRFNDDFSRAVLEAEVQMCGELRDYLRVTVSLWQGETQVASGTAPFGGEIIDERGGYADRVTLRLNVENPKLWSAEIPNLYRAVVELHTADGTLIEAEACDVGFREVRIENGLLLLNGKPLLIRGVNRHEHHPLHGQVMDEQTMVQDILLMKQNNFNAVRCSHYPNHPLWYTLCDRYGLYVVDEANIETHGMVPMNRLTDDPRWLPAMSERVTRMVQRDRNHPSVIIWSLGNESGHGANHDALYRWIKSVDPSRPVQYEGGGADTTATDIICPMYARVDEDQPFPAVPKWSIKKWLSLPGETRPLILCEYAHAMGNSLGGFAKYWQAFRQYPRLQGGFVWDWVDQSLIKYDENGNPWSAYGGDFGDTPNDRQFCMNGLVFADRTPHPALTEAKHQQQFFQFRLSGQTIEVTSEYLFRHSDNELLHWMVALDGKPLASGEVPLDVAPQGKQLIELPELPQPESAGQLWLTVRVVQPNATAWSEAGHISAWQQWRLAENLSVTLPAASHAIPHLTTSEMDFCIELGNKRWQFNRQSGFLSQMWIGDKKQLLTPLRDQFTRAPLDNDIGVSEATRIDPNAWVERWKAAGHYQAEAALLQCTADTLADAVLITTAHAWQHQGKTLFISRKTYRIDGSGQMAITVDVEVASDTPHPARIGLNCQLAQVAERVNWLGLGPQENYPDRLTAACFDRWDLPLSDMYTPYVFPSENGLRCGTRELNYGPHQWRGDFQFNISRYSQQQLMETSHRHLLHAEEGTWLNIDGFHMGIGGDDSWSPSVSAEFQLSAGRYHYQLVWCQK
Experimental: as §1

[3] = isoelectric point (pI) of peptides; type: physicochemical

Chain of Beta-galactosidase (β-gal) (P00722 2-1024): as above

With RVFKRYKRWLHVSRYYFGSC the β-gal activity inhibited [1] was 95%, the “binding to the β-gal enzyme” value [2] was “binds strongly” and the “isoelectric point (pI)” value [3] was 10.6.
